Data reported in the RNAGym collection of RNA variant scans (doi:10.1021/acssynbio.7b00057).

B1: Pistol ribozyme (parent)
chain: GGGUCGUUGUUCCAUAAUCGCGUGGAUAUGGCACGCAAGUUUCUACCGGGCACCGUAAAUGUCCGACUGGAGCCGUUCGGGCGGCUAUAAACAGACCUCAGGCCCGAAGCGUGGCGGCACCUGCCGCCGGUGGUAAAAAAGAUCGGAAGAGCACACGUCU

Variants of: B1
Assay: aptazyme ON/OFF ratio, guanine; higher = stronger switching; co-transcriptional cleavage with and without guanine

| Variant | aptazyme ON/OFF ratio |
| --- | --- |
| U7A U8G G9C U10G U11G C12A C13A | 1.18 |
| U7A U8G G9C U10G U11G C12A C13G | 1.16 |
| U7A U8G G9C U10G U11G C12A C13U | 1.22 |
| U7A U8G G9C U10G U11G C12G C13U | 1.14 |
| U7A U8G G9C U10G U11G C12G C13A | 1.32 |
| U7A U8G G9C U10G U11G C12G C13G | 1.24 |
| U7A U8G G9U U10A U11G C12G | 1.19 |
| U7A U8G G9U U10A U11G C12U | 1.17 |
| U7A U8G G9U U10A U11G C12A | 1.06 |
| U7A U8G G9C U11A C12G C13A | 1.11 |
| U7A U8G G9C U11A C12G C13U | 1.28 |
| U7A U8G G9C U11A C12G C13G | 1.35 |
| U7A U8G G9U U10A U11C | 1.06 |
| U7A U8G G9U U10A U11A | 2.58 |
| U7A U8G G9U U10A U11G | 2.03 |
| U7A U8G G9C U10G U11C C12U C13G | 1.37 |
| U7A U8G G9C U10G U11C C12U C13U | 1.21 |
| U7A U8G G9C U10G U11C C12U C13A | 1.31 |
| U7A U8G G9U U10A U11C C13G | 1.09 |
| U7A U8G G9U U10A U11C C13A | 1.02 |
| U7A U8G G9U U10A U11C C13U | 0.998 |
| U7A U8G G9C U11A C13A | 1.44 |
| U7A U8G G9C U11A C13G | 1.15 |
| U7A U8G G9C U11A C13U | 1.36 |

| Variant | aptazyme ON/OFF ratio |
| --- | --- |
| U7A U8G G9C U11C C12U C13U | 1.22 |
| U7A U8G G9C U11C C12U C13G | 1.38 |
| U7A U8G G9C U11C C12U C13A | 1.41 |
| U7A U8G G9U U10A U11A C13G | 1.15 |
| U7A U8G G9U U10A U11A C13A | 1.48 |
| U7A U8G G9U U10A U11A C13U | 1.39 |
| U7A U8G G9C U10G U11G C12A | 1.36 |
| U7A U8G G9C U10G U11G C12G | 1.19 |
| U7A U8G G9C U10G U11G C12U | 1.2 |
| U7A U8G G9C U11G C12A C13A | 1.29 |
| U7A U8G G9C U11G C12A C13U | 1.28 |
| U7A U8G G9C U11G C12A C13G | 1.26 |
| U7A U8G G9C U10G U11G | 1.25 |
| U7A U8G G9C U10G U11C | 1.04 |
| U7A U8G G9C U10G U11G C12U C13U | 1.48 |
| U7A U8G G9C U10G U11G C12U C13G | 1.18 |
| U7A U8G G9C U10G U11G C12U C13A | 1.2 |
| U7A U8G G9U U10A U11G C12A C13A | 1.11 |
| U7A U8G G9U U10A U11G C12A C13G | 1.12 |
| U7A U8G G9U U10A U11G C12A C13U | 1.19 |
| U7A U8G G9C U11A C12U C13G | 1.37 |
| U7A U8G G9C U11A C12U C13U | 1.46 |
| U7A U8G G9C U11A C12U C13A | 1.4 |
| U7A U8G G9U U10A U11G C12U C13A | 1.08 |

| Variant | aptazyme ON/OFF ratio |
| --- | --- |
| U7A U8G G9U U10A U11G C12U C13G | 1.16 |
| U7A U8G G9U U10A U11G C12U C13U | 1.18 |
| U7A U8G G9C U11A C12A | 1.73 |
| U7A U8G G9C U11A C12G | 1.34 |
| U7A U8G G9C U11A C12U | 1.53 |
| U7A U8G G9C U11G C12U | 1.43 |
| U7A U8G G9C U11G C12G | 1.66 |
| U7A U8G G9C U11G C12A | 1.67 |
| U7A U8G G9U C12U C13A | 1.64 |
| U7A U8G G9U C12U C13G | 1.17 |
| U7A U8G G9U C12U C13U | 1.26 |
| U7A U8G G9C U11A C12A C13A | 1.25 |
| U7A U8G G9C U11A C12A C13G | 1.37 |
| U7A U8G G9C U11A C12A C13U | 1.47 |
| U7A U8G G9C U11G C13U | 1.4 |
| U7A U8G G9C U11G C13A | 1.43 |
| U7A U8G G9C U11G C13G | 1.22 |
| U7A U8G G9C U10G U11C C12G C13U | 1.4 |
| U7A U8G G9C U10G U11C C12G C13A | 1.27 |
| U7A U8G G9C U10G U11C C12G C13G | 1.3 |
| U7A U8G G9C U10G U11A C13G | 1.25 |
| U7A U8G G9C U10G U11A C13U | 1.15 |
| U7A U8G G9C U10G U11A C13A | 1.11 |
| U7A U8G G9U U10A U11A C12G | 1.33 |

| Variant | aptazyme ON/OFF ratio |
| --- | --- |
| U7A U8G G9U U10A U11A C12A | 1.2 |
| U7A U8G G9U U10A U11A C12U | 1.32 |
| U7A U8G G9U U10A C12A C13U | 1.36 |
| U7A U8G G9U U10A C12A C13A | 1.31 |
| U7A U8G G9U U10A C12A C13G | 1.28 |
| U7A U8G G9C U10G U11C C12A | 1.47 |
| U7A U8G G9C U10G U11C C12U | 1.07 |
| U7A U8G G9C U10G U11C C12G | 1.3 |
| U7A U8G G9C U10G U11G C13A | 1.19 |
| U7A U8G G9C U10G U11G C13U | 1.31 |
| U7A U8G G9C U10G U11G C13G | 1.21 |
| U7A U8G G9U U10A C12G C13U | 1.36 |
| U7A U8G G9U U10A C12G C13G | 1.47 |
| U7A U8G G9U U10A C12G C13A | 1.09 |
| U7A U8G G9C U11A | 2.34 |
| U7A U8G G9C U11C | 1.35 |
| U7A U8G G9C U11G | 1.57 |
| U7A U8G G9C U11C C13G | 1.1 |
| U7A U8G G9C U11C C13U | 1.44 |
| U7A U8G G9C U11C C13A | 1.37 |
| U7A U8G G9U U10A C12U C13G | 1.36 |
| U7A U8G G9U U10A C12U C13U | 1.31 |
| U7A U8G G9U U10A C12U C13A | 1.32 |
| U7A U8G G9U U10A U11C C12G C13A | 1.14 |

| Variant | aptazyme ON/OFF ratio |
| --- | --- |
| U7A U8G G9U U10A U11C C12G C13U | 1.4 |
| U7A U8G G9U U10A U11C C12G C13G | 1.27 |
| U7A U8G G9C U11C C12A C13U | 1.66 |
| U7A U8G G9C U11C C12A C13A | 1.17 |
| U7A U8G G9C U11C C12A C13G | 1.18 |
| U7A U8G G9U U10A U11A C12G C13G | 1.28 |
| U7A U8G G9U U10A U11A C12G C13A | 1.36 |
| U7A U8G G9U U10A U11A C12G C13U | 1.22 |
| U7A U8G G9U C12G C13U | 1.33 |
| U7A U8G G9U C12G C13G | 1.4 |
| U7A U8G G9U C12G C13A | 1.22 |
| U7A U8G G9U U10A U11C C12U C13G | 1.49 |
| U7A U8G G9U U10A U11C C12U C13A | 1.21 |
| U7A U8G G9U U10A U11C C12U C13U | 1.2 |
| U7A U8G G9U U10A C12G | 1.45 |
| U7A U8G G9U U10A C12A | 1.45 |
| U7A U8G G9U U10A C12U | 1.4 |
| U7A U8G G9U C12A C13G | 1.44 |
| U7A U8G G9U C12A C13U | 1.2 |
| U7A U8G G9U C12A C13A | 1.28 |
| U7A U8G G9U | 3.18 |
| U7A U8G G9U U10A U11A C12A C13G | 1.25 |
| U7A U8G G9U U10A U11A C12A C13U | 1.42 |
| U7A U8G G9U U10A U11A C12A C13A | 1.24 |

| Variant | aptazyme ON/OFF ratio |
| --- | --- |
| U7A U8G G9U C12G | 1.64 |
| U7A U8G G9U C12U | 1.62 |
| U7A U8G G9U C12A | 1.53 |
| U7A U8G G9C U10G U11A C12U C13U | 1.42 |
| U7A U8G G9C U10G U11C C12A C13A | 1.38 |
| U7A U8G G9C U10G U11C C12A C13G | 1.22 |
| U7A U8G G9C U10G U11C C12A C13U | 1.29 |
| U7A U8G G9U U10A U11G C13A | 1.14 |
| U7A U8G G9U U10A U11G C13U | 1.37 |
| U7A U8G G9U U10A U11G C13G | 1.12 |
| U7A U8G G9U C13U | 1.96 |
| U7A U8G G9U C13G | 1.14 |
| U7A U8G G9U C13A | 1.25 |
| U7A U8G G9U U10A C13U | 1.23 |
| U7A U8G G9U U10A C13A | 1.36 |
| U7A U8G G9U U10A C13G | 1.12 |
| U7A U8G G9U U10C | 2.52 |
| U7A U8G G9U U10A | 1.18 |
| U7A U8G G9U U10A U11C C12A | 1.39 |
| U7A U8G G9U U10A U11C C12U | 1.04 |
| U7A U8G G9U U10A U11C C12G | 1.43 |
| U7A U8G G9C U10G U11C C13A | 1.1 |
| U7A U8G G9C U10G U11C C13U | 1.04 |
| U7A U8G G9C U10G U11C C13G | 1.08 |

| Variant | aptazyme ON/OFF ratio |
| --- | --- |
| U7A U8G G9U U10C C12A C13A | 1.46 |
| U7A U8G G9C U11G C12U C13U | 1.4 |
| U7A U8G G9C U11G C12U C13G | 1.41 |
| U7A U8G G9C U11G C12U C13A | 1.44 |
| U7A U8G G9C U11C C12G C13A | 1.19 |
| U7A U8G G9C U11C C12G C13G | 1.11 |
| U7A U8G G9C U11C C12G C13U | 1.37 |
| U7A U8G G9U U10A U11G C12G C13U | 1.52 |
| U7A U8G G9U U10A U11G C12G C13A | 1.05 |
| U7A U8G G9U U10A U11G C12G C13G | 1.14 |
| U7A U8G G9C U11C C12U | 1.49 |
| U7A U8G G9C U11C C12G | 1.65 |
| U7A U8G G9C U11C C12A | 2.15 |
| U7A U8G G9C U11G C12G C13A | 1.1 |
| U7A U8G G9C U11G C12G C13U | 1.22 |
| U7A U8G G9C U11G C12G C13G | 1.18 |
| U7A U8G G9U U10A U11A C12U C13U | 1.2 |
| U7A U8G G9U U10A U11A C12U C13G | 1.24 |
| U7A U8G G9U U10A U11A C12U C13A | 1.26 |
| U7A U8G G9U U10C C12A | 1.41 |
| U7A U8G G9U U10A U11C C12A C13A | 1.25 |
| U7A U8G G9U U10A U11C C12A C13U | 1.37 |
| U7A U8G G9U U10A U11C C12A C13G | 1.2 |
